US20130071393A1 (published 2013)

T1: GDF11 (UniProt O95390 299-407)
T1 construct: Ligand used in the reporter gene and BiaCore assays; construct not described; also called Growth and Differentiation Factor-11; BMP11
T1 sequence (looked up): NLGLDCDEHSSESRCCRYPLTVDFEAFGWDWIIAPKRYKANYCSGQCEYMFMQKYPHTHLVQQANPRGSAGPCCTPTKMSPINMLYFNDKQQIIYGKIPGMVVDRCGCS

T2: Activin A (UniProt P08476 311-426)
T2 construct: also called ActA
T2 sequence (looked up): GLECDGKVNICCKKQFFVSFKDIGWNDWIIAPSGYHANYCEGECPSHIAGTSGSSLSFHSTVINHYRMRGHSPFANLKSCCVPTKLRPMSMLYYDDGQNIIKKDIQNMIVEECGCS


Key:
[1] = molecular target: T1, GDF11; experiment: cell-based or functional assay
[2] = molecular target: T2, Activin A; experiment: cell-based or functional assay
[3] = molecular target: T1, GDF11; experiment: BiaCore; ligand coupled to the device, receptor-Fc flowed over
[4] = molecular target: T1, GDF11; experiment: BiaCore; ligand coupled, receptor-Fc flowed over; legend: -- = <⅕ WT binding
[5] = molecular target: T2, Activin A; experiment: BiaCore; ligand coupled to the device, receptor-Fc flowed over

Molecule | binding result [3] | binding result [5] | other results
ActRIIB-Fc A64 20-134 (from UniProt Q13705 20-134) (Fc fusion) |  |  | KI, GDF11 Inhibition Activity (cell based assay) [1]: 1000 nM; KI, Activin Inhibition Activity (cell based assay) [2]: 1000 nM
Soluble ActRIIB-Fc D54A (Fc fusion, UniProt Q13705 19-119, looked up, T0019 variant; whole entry named; not shown: Fc domain) SGRGEAETRECIYYNANWELERTNQSGLERCEGEQAKRLHCYASWANSSGTIELVKKGCWLDDFNCYDRQECVATEENPQVYFCCCEGNFCNERFTHLPEA | no binding |  | 
Soluble ActRIIB-Fc K74I (Fc fusion, UniProt Q13705 19-119, looked up, T0019 variant; whole entry named; not shown: Fc domain) SGRGEAETRECIYYNANWELERTNQSGLERCEGEQDKRLHCYASWANSSGTIELVIKGCWLDDFNCYDRQECVATEENPQVYFCCCEGNFCNERFTHLPEA |  | no binding | binding relative to WT [4]: < 0.2 fold
Soluble ActRIIB-Fc WT (64R) (Fc fusion, UniProt Q13705 19-119, looked up, T0019 variant; whole entry named; not shown: Fc domain) SGRGEAETRECIYYNANWELERTNQSGLERCEGEQDKRLHCYASWRNSSGTIELVKKGCWLDDFNCYDRQECVATEENPQVYFCCCEGNFCNERFTHLPEA |  |  | Kd [3]: 86 nM
Soluble ActRIIB-Fc D80M (Fc fusion, UniProt Q13705 19-119, looked up, T0019 variant; whole entry named; not shown: Fc domain) SGRGEAETRECIYYNANWELERTNQSGLERCEGEQDKRLHCYASWANSSGTIELVKKGCWLMDFNCYDRQECVATEENPQVYFCCCEGNFCNERFTHLPEA | no binding | no binding | 
Soluble ActRIIB-Fc D80N (Fc fusion, UniProt Q13705 19-119, looked up, T0019 variant; whole entry named; not shown: Fc domain) SGRGEAETRECIYYNANWELERTNQSGLERCEGEQDKRLHCYASWANSSGTIELVKKGCWLNDFNCYDRQECVATEENPQVYFCCCEGNFCNERFTHLPEA | no binding | no binding | 
Soluble ActRIIB-Fc K55A (Fc fusion, UniProt Q13705 19-119, looked up, T0019 variant; whole entry named; not shown: Fc domain) SGRGEAETRECIYYNANWELERTNQSGLERCEGEQDARLHCYASWANSSGTIELVKKGCWLDDFNCYDRQECVATEENPQVYFCCCEGNFCNERFTHLPEA | no binding |  | 
Soluble ActRIIB-Fc D80R (Fc fusion, UniProt Q13705 19-119, looked up, T0019 variant; whole entry named; not shown: Fc domain) SGRGEAETRECIYYNANWELERTNQSGLERCEGEQDKRLHCYASWANSSGTIELVKKGCWLRDFNCYDRQECVATEENPQVYFCCCEGNFCNERFTHLPEA | no binding | no binding | 
Soluble ActRIIB-Fc K74F (Fc fusion, UniProt Q13705 19-119, looked up, T0019 variant; whole entry named; not shown: Fc domain) SGRGEAETRECIYYNANWELERTNQSGLERCEGEQDKRLHCYASWANSSGTIELVFKGCWLDDFNCYDRQECVATEENPQVYFCCCEGNFCNERFTHLPEA |  | no binding | binding relative to WT [4]: < 0.2 fold
Soluble ActRIIB-Fc D80I (Fc fusion, UniProt Q13705 19-119, looked up, T0019 variant; whole entry named; not shown: Fc domain) SGRGEAETRECIYYNANWELERTNQSGLERCEGEQDKRLHCYASWANSSGTIELVKKGCWLIDFNCYDRQECVATEENPQVYFCCCEGNFCNERFTHLPEA |  | no binding | binding relative to WT [4]: < 0.2 fold
Soluble ActRIIB-Fc K74Y (Fc fusion, UniProt Q13705 19-119, looked up, T0019 variant; whole entry named; not shown: Fc domain) SGRGEAETRECIYYNANWELERTNQSGLERCEGEQDKRLHCYASWANSSGTIELVYKGCWLDDFNCYDRQECVATEENPQVYFCCCEGNFCNERFTHLPEA |  | no binding | binding relative to WT [4]: < 0.2 fold
Soluble ActRIIB-Fc K74A (Fc fusion, UniProt Q13705 19-119, looked up, T0019 variant; whole entry named; not shown: Fc domain) SGRGEAETRECIYYNANWELERTNQSGLERCEGEQDKRLHCYASWANSSGTIELVAKGCWLDDFNCYDRQECVATEENPQVYFCCCEGNFCNERFTHLPEA |  |  | Kd [3]: 5.3 nM; Kd [5]: 4.35 nM

More lines, main results first:

binding result [3] | binding result [5] | Molecule | other results
no binding | no binding | Soluble ActRIIB-Fc R56A (Fc fusion, UniProt Q13705 19-119, looked up, T0019 variant; whole entry named; not shown: Fc domain) SGRGEAETRECIYYNANWELERTNQSGLERCEGEQDKALHCYASWANSSGTIELVKKGCWLDDFNCYDRQECVATEENPQVYFCCCEGNFCNERFTHLPEA | 
no binding | no binding | Soluble ActRIIB-Fc D80K (Fc fusion, UniProt Q13705 19-119, looked up, T0019 variant; whole entry named; not shown: Fc domain) SGRGEAETRECIYYNANWELERTNQSGLERCEGEQDKRLHCYASWANSSGTIELVKKGCWLKDFNCYDRQECVATEENPQVYFCCCEGNFCNERFTHLPEA | 
no binding |  | Soluble ActRIIB-Fc L79A (Fc fusion, UniProt Q13705 19-119, looked up, T0019 variant; whole entry named; not shown: Fc domain) SGRGEAETRECIYYNANWELERTNQSGLERCEGEQDKRLHCYASWANSSGTIELVKKGCWADDFNCYDRQECVATEENPQVYFCCCEGNFCNERFTHLPEA | 
no binding | no binding | Soluble ActRIIB-Fc W78A (Fc fusion, UniProt Q13705 19-119, looked up, T0019 variant; whole entry named; not shown: Fc domain) SGRGEAETRECIYYNANWELERTNQSGLERCEGEQDKRLHCYASWANSSGTIELVKKGCALDDFNCYDRQECVATEENPQVYFCCCEGNFCNERFTHLPEA | 
no binding | no binding | Soluble ActRIIB-Fc D80G (Fc fusion, UniProt Q13705 19-119, looked up, T0019 variant; whole entry named; not shown: Fc domain) SGRGEAETRECIYYNANWELERTNQSGLERCEGEQDKRLHCYASWANSSGTIELVKKGCWLGDFNCYDRQECVATEENPQVYFCCCEGNFCNERFTHLPEA | 
no binding | no binding | Soluble ActRIIB-Fc D80F (Fc fusion, UniProt Q13705 19-119, looked up, T0019 variant; whole entry named; not shown: Fc domain) SGRGEAETRECIYYNANWELERTNQSGLERCEGEQDKRLHCYASWANSSGTIELVKKGCWLFDFNCYDRQECVATEENPQVYFCCCEGNFCNERFTHLPEA | 
no binding | no binding | Soluble ActRIIB-Fc E37A (Fc fusion, UniProt Q13705 19-119, looked up, T0019 variant; whole entry named; not shown: Fc domain) SGRGEAETRECIYYNANWALERTNQSGLERCEGEQDKRLHCYASWANSSGTIELVKKGCWLDDFNCYDRQECVATEENPQVYFCCCEGNFCNERFTHLPEA | 
no binding | no binding | Soluble ActRIIB-Fc D80A (Fc fusion, UniProt Q13705 19-119, looked up, T0019 variant; whole entry named; not shown: Fc domain) SGRGEAETRECIYYNANWELERTNQSGLERCEGEQDKRLHCYASWANSSGTIELVKKGCWLADFNCYDRQECVATEENPQVYFCCCEGNFCNERFTHLPEA | 
